Measured values from the nanobody polyreactivity screen of Harvey et al. (2022).

Assay: yeast display, Sf9 membrane polyspecificity reagent, FACS + sequencing; frameworks hold sequencing errors
In short: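 Nanobodies from a synthetic yeast display library (Saccharomyces cerevisiae BJ5465), induced 36–48 hours with galactose, were stained 1 hour at 4 °C with 10% biotinylated, detergent-solubilized Sf9 membrane reagent, enriched on streptavidin microbeads, then FACS-sorted. Anti-HA (expression) and streptavidin (reagent binding) fluorescence set low and high (top ~1%) gates. Polyreactivity labels come from the gate of origin. Genes were colony-PCR amplified, MiSeq 2 × 250 sequenced and filtered by CDR length.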

Sequence: QVQLVESGGGLVQAGGSLRLSCAASGRSFTYYAMGWYRQAPGKERELVATISGSGGSTYYADSVKGRFTISRDNAKNTVYLQMNSLKPEDTAVYYCAATGFIFRGRVRAIPRRYNYWGQGTQVTVSS
- polyreactivity (PSR sort gate): high polyreactivity

Sequence: QVHLVESGGGLVQAGGSLRLSCAASGGIFFPNAMGWYRQAPWKERELVAAISWSAGSTYYADSVKGRFTISRDNAKNTVYLELNSVKPEDTAVYYCAAAGSKNTVLYGYYYWGQGTQVTVSS
- polyreactivity (PSR sort gate): low polyreactivity

Sequence: QVQLVESGGGLVQAGGSLRLSCPASGFTFGYYAMGWYRQSPGKESELVATITSSGASTYADSVKGRFTISGDNAKNTVYLQMISLKPEDTAVYYCAADRLPSYWSWYGYDYWVQGTQVTVSS
- polyreactivity (PSR sort gate): high polyreactivity

Sequence: QVQLVESGGGLVQAGGSLRLSCAASGSTFSDYAMGWYRQAPGKERELVADISSDGSTYYADSVKGRFTISRDNAKNTVYLQMNSLKPEDTAVYYCNAGYPDYDWTWWHISYDYWGQGTQVTVSS
- polyreactivity (PSR sort gate): low polyreactivity

Sequence: QVQLVESGGGLVQAGGSLRLSCAASGFTFLIYAMGWYIQAPGKERELVADISYNDDITYYADSVKGRFTISRDNAKNTVYLQMNSLKPEDTAVYYCAADYVNPELDYWGQGTQVTVSS
- polyreactivity (PSR sort gate): low polyreactivity

Sequence: QVHLVESGGGVVQAGGSLRLSCAASGFTFVPYAMGWYRQAPGKETETNADSVKGRFTSSRDNAKNTVYLQMNSLKPEDTAVYYCAAGGYGPYDYWGQGTQVTVSS
- polyreactivity (PSR sort gate): low polyreactivity

Sequence: QVQLVESGGGLVQAGGSRRLSCAASGIIFYPNAMGWYRQAPGKERELVAAITSDGSTYYADSVKGRFTISRDNAKNTVYLQMNSLKPEDTAVYYCAAWDDYGYDYWGQGTQVTVSS
- polyreactivity (PSR sort gate): low polyreactivity

Sequence: QVQLVESGGGLVQAGGSLRLSCAAYGSTFYHKAMGWYRQAPGKERELVARITRGGSTDYADSVKGRFTISRDNAKNTVYLQMNSRKPEDTAVYYCAAAIGHFERFYWGQGTQVTVSS
- polyreactivity (PSR sort gate): low polyreactivity

Sequence: QVQLVESGGGIVQAGGSLRLSCAASGSIYRYNTMGWYRQEPRKERELVATITRRGGSTYYADSVQGRFTISRDNAKNTVYLQMNSLKPEDTAVYYCNADYFGGPYNYWGQGTQVTVSS
- polyreactivity (PSR sort gate): low polyreactivity

Sequence: HLQLVESGGGLVQAGGSLRLSCAASGSIFYYNAMGWYRQAPGKERELVASIRANGGNTYYADSVKGRFTISRDNAKNTVYLQMNSLKPEETAVYYCAKESRYAHLYYYWGQGTQVTVSS
- polyreactivity (PSR sort gate): low polyreactivity

Sequence: QVQLVESGGGLVQAGGSLRLSCAASGSIFVRYAMGWYRQAPGKERELVAGITNSGGSTYYADSVKGRFTISRDNEKNTVYLQMNSLKPEDTAVYYCAADAGGWWYKYYYWGQGTQVTVSS
- polyreactivity (PSR sort gate): high polyreactivity

Sequence: QVQLVESGGGLVQSGGSLRLSCAASGFSFRYYAMGWYRQAPGKERELVAAITQSGGTTYYADSVKGRFTISRDNAKNTVYLQMNSLKPEDTAVYYCNGYGYGFTGKGDYWGQGTQVTVSS
- polyreactivity (PSR sort gate): high polyreactivity

Sequence: QVQLVESGRGLVQAGGSLRLSCAASGSTFATYAMGWYRQAPGKERELVAVITRGGRTYYADSVKGRFTISRDNAKNTVYLQMNSLKPEDNAVYYCAAKAYTYYARIGFDYWGQGTQVTVSS
- polyreactivity (PSR sort gate): high polyreactivity

Sequence: QVQLVESGGGLVQAGASLRLSCAASGRTFSENAMGWYRQAPGKERELVAAISGSGGRTYYADSVKGRFTISRDNEKNTVYLQMKSLKPEVTAVYYCAKVTRYGSTYDYWGQGTQVTVSS
- polyreactivity (PSR sort gate): high polyreactivity

Sequence: QVQLVESGGGLVQAGGSLRFTCAASGRIFLGYAMGWYRQAAGKEREFVAAINSVASTNYADSVKGRFTISRDNAKNTVYLQMNSLKPEDTAVYYCAAVYFLVQSDLPAYDYWGQGTQVTVSS
- polyreactivity (PSR sort gate): low polyreactivity

Sequence: QVQLVESGGGLVQAGGSLRLSCAASGSTFYSYAMGWYRQAPGKERELVAAISSSGGRTRYADSVKGRFTISRDNAKNTVYLQMNSLKPEDTAVYYCAARNRVRVGTRIGRIDEDYWGQGTQVTVSS
- polyreactivity (PSR sort gate): high polyreactivity

Sequence: QVQHVESGGGLDQAGGSLRFSCAASGTIFVYNAMGSYREAPGKERELVAAMDTVGSTNYADSVKGRFTISRDNAKNTVYLQMNSLKPEDTAVYYCAVVTPYWSFFEQVIPSNYWGQGSQVTVSS
- polyreactivity (PSR sort gate): low polyreactivity

Sequence: QVQLVESGGGLVQAGGSLRLSCAASGIIFGGYDMGWYRQAPGKERELVAAISWSGGSTYYADSVKGRFTISRDNAKNTVYLQMNSLKPEDTAVYYCAAAYYAPTRDYHYWGQGTQVTVSS
- polyreactivity (PSR sort gate): low polyreactivity

Sequence: QVQLVESGGGLVNAGGSLRLSCAASGITFWGYAMGWYRQAPGKERELVAAITSGGTTYYADSVKGRFTISRDNAKNTVYLQMNSLKPEDTAVYYCNARYPSADDWGQGTQVTVSS
- polyreactivity (PSR sort gate): high polyreactivity

Sequence: QVQLVESGGGLVQAGGSLRLSCAASGRIFSGYAMGWYRQAPGKEREFVAAITSSGRTKYADSVKGRFTISRDNAKNTVYLQMNSLKPEDTAVYYCAARPSQWNYDYRRVYYWGQGTQVTVSS
- polyreactivity (PSR sort gate): high polyreactivity

Sequence: QVQLVESGGGLVQAGGSLRLSCAASGFTYGINAMGWYRQAPGKERELVASISSGSSTTYADSVKGRFTISRDNATNTVYLQMISLKPEDTAVYYCNARPFHIYWRYDYWGQGTQVTVSS
- polyreactivity (PSR sort gate): low polyreactivity

Sequence: QVQLVESGGGLVQAGGSLRLSCAASGRNFSNYAMGWYRQAPGKERELVAAIRATGTTTYYADSVKGRFTISRDNAKNTVYLQMNSLKPDDTAVYYCAARGSRYRSSGYDYWGQGTQVTVSS
- polyreactivity (PSR sort gate): high polyreactivity

Sequence: QVQLVESGGGLVQAGGSLRLSCAASGRTFKGYAMGWYRQAPGKERELVAAITGSVGSTYYADSVKGRFTISRDNAKNTVYLQMNSLKPEDTAVYYCAKRWKATRARYDYWGLGTQVTVSS
- polyreactivity (PSR sort gate): high polyreactivity

Sequence: QVQLVESGGGLVQAGGSLRLSCAASGTFVSYVMGWYSQPPGKERELVAAINVRGASTYYADSVKGRFTISRDNAKITVYLQMNTLKPEDTAVYYCATEYVSGPEYDYWGQGTQVTVSS
- polyreactivity (PSR sort gate): low polyreactivity

Sequence: QVQLVESGGGLVQAGGSLRLSCAASGSIFGGYTMGWYRQAPGKERELVAAISRRGGNTYYADSVKGRFTISRDNAKNTVYLQMNSLKPEDTAVYYCNARPTTYNYDYWGQGTQVTVSS
- polyreactivity (PSR sort gate): high polyreactivity

Sequence: QVQLVESGGGLVQAGGSLRLSCAASGRIFYFNAMGWYRQAPGQERELVADISSGGRTNYADSVKGRFTISRDNAKNTVYLQMNSLKPEDTAVYYCNAEPYTSSGGYRGYDFDSWGQGTQVTVSS
- polyreactivity (PSR sort gate): low polyreactivity

Sequence: QDQLVDSGGGLVQAGGSLRLSCAASGRSFRNNPMGWYRQAPGKERELVAAITSSGASTYYADSVKGRFTISRDNAKNTVYLQMNSLKPEDTAVYSCAAATVRQFRSSLDYWGQGTQVTVSS
- polyreactivity (PSR sort gate): high polyreactivity

Sequence: QVQLVESGGGLFQAGGSLRLSCAASGRISYGNAMGWYRQAPGKEMELVAAISGSGGSKYYADSVKGRFTISRDNAKNTVYLQMNSLKPEDTAVYYCAADSRKRQGYGYWGQGTQVTVSS
- polyreactivity (PSR sort gate): low polyreactivity

Sequence: QVQLVESGGGLVQAGGSLRLSCAASGIILFYAMGWYRQAPGKERELVAAISSGGGTSYADSVKGRFTISRDNAKNTVYLHMNSLKPEDTAVYYCNADGYSYFWYPSYARGHDYWGQGTQVTVSS
- polyreactivity (PSR sort gate): low polyreactivity

Sequence: QVQVVESGGGLVQAGGSLRLSCAPSGRIFQLYAMGRYRQAPRKERELVAVISSGDRTYYADSVKGRFTISRDNAKNTVYLQMNSLKPEDTAVYYCAALGWQSGGSRWHGEYDYWGQGTQVTVSS
- polyreactivity (PSR sort gate): low polyreactivity

Sequence: QVQLVESGGGLVHAGGSLRLSCAASGRIFYPYTMGWYRQAPGKERELVAAISIRGTSTYYADSVKGRFTISRDNAKNTVYLQMNSLKPEDTAVYYCAALYVGYDYWGQGTQVTVSS
- polyreactivity (PSR sort gate): high polyreactivity

Sequence: QVQLVESGGGLDQARGSLRLSCAASGRTFRYYAMGWYRQAPWKERELVAAISSRGTRTYYADSVKGRFTISRDNAKNTVYLQMNSLKPEDTAVYYCATRYYQELSYDYWGQGTQVIVSS
- polyreactivity (PSR sort gate): high polyreactivity

Sequence: QVQLVESGRGLVQAGGSLRLSCAASGSTFYRYAMGWYRQAPGKERELVAGITGSGGRTYYADSVKGRFTISRDNAKNTVYLQMNSLKPEDTAVYYCNAYPSSSLFDYWGQGTQVTVSS
- polyreactivity (PSR sort gate): low polyreactivity

Sequence: QVQLVESGGGLVQAGGSLRLSCAASGSTLPTNAMGWYRQAPGKEREFVAAISDNGGSTYYADSVKGRFTISRDNAKNTVYLQMNSLKPEDTAVYYCAADNFAPEFYYWGQGTQVTVSS
- polyreactivity (PSR sort gate): low polyreactivity

Sequence: QVQLVESGGGLVQAGGSLRLSCAASGSIFYYGMGWYRQAPGKERELVAAITRGGSTYYADSVKGRFTISRDNAKNTVYLQMNSLKPEDTAVYYCATGPLVYYSARYSSYVYPYDYWGQGTQVTVSS
- polyreactivity (PSR sort gate): low polyreactivity

Sequence: QDQLGESGGGLVQAGGSLRLTCAASGFIFSNNAMGWYRPSPGKERELVAAISGSGVSTYYADSVKGRFTISRDNAKNTVYLQMNSLKPEDTAVYYCAASASLRHDYWGQGTQVTVSS
- polyreactivity (PSR sort gate): high polyreactivity

Sequence: QVQLVESGGGLVQAGGSLRLSCAATGYIFSHYAMGWYRQAPGKERELVAAITRSGGSTYYADSVKGRFTISRDNAKNTVYLQMNSLKPEVTAVYYCAASSLFYYWGQGTQVTVSS
- polyreactivity (PSR sort gate): high polyreactivity

Sequence: QVQLVESGGGLVQAGGSLLLSCAASGSTFIWNAMGWYRQAHGKERELVAAISSGGSTYYADSVKGRFTISRDNAKNTVYLQMNSLKPEDTAVYYCAAEYVYNVWEQRYAVYSTDDYWGQGTQVTVSS
- polyreactivity (PSR sort gate): low polyreactivity

Sequence: QVQLVESGGGLVQAGGSLRLSCAASVITFVFYAMGWYRQAPGKEREFVAGITWRGGRTYYADSVKGRFTISRDNAKNTVYLQMNSLKPEDTAVYYCNARSVVLTGGDYWGQGTQVTVSS
- polyreactivity (PSR sort gate): high polyreactivity

Sequence: QVQLVESGGGLVQAGGSLRLSCAASGFIFYRYAMGWYRQAPGKERELVAAISRSGGSTYYADSVKGRFTISRDNAKNTVYLQMNSLKPEDTAVYYCAADRGSLAPGNDYWGQGNQVTVSS
- polyreactivity (PSR sort gate): high polyreactivity

Sequence: QVQLVESGGGLVQAGGSLRLSCAASGRISGYAMGWDRQAPGKERELVAAISTRGGTTYYADSVKGRFTISRDNAKNTVQLQMNSLKPEDTAVYYCNAASSRWPEYDYWGQGTQVTVSS
- polyreactivity (PSR sort gate): high polyreactivity

Sequence: QVQLVESGGGLVQAGGSLRLSCAASGRIFKYNAMGWYRQAPGKERELVAAISSSGGSTYYADSVKGRFTISRDNAKNTVYLQMNSLKPEDTAVYYCAARYAPTLSVYRFYYWGQGTQVTVSS
- polyreactivity (PSR sort gate): high polyreactivity

Sequence: QVQLVESGGGLVKAGGSLRLTCAASGRTFGDNAMVWYRQATGKEMELVAAIRWGGGSTYYADSVKGRFTISRDNAKNTVFLQMNRLKPEDTAVYYCAKDDWDIALVHGEYDYWGQGTQVTVSS
- polyreactivity (PSR sort gate): low polyreactivity
